Earlier results in paper PMC10155966.

Experiments:
LC8 = LC8 (UniProt P63167)
[1] = molecular target: dynein intermediate chain (IC) (Rattus norvegicus) (UniProt Q63100); assay: ITC
Chain of UniProt Q63100 (Q63100 2-643): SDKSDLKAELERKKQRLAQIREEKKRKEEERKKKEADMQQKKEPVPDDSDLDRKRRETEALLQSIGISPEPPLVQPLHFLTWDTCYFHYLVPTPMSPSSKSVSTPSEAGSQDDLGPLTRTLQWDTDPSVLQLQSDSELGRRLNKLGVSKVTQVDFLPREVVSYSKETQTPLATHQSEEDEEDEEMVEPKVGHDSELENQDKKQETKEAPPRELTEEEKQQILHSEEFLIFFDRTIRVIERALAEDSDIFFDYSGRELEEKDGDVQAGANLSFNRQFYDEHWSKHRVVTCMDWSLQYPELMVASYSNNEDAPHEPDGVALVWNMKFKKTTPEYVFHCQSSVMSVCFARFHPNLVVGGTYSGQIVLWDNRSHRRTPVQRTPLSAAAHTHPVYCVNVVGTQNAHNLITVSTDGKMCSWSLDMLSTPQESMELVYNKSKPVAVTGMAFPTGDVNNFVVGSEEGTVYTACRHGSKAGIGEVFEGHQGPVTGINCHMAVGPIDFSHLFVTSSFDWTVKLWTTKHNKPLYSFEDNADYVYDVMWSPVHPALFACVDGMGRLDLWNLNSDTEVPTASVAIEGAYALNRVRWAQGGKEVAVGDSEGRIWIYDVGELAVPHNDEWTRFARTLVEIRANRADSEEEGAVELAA

Chain of LC8 (P63167 whole entry): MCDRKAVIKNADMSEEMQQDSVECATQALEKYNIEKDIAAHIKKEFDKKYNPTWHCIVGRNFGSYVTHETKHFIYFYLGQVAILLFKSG

Kd (LC8) [nM]	Kd [1] [nM]	Substance
60	–	LC8 (from UniProt P63167)
–	2300	NudE (from UniProt Q9ES39)
